Usually IC50 stands for the point on the concentration scale where inhibition reaches its midpoint.

Common to all, as to assay: cell-based or functional assay
In test [1] the target is HIV-1 Env of isolate MGRM-D-029 (clade D pseudovirus) (HIV-1).
Test [2] has as its target HIV-1 APV-6 envelope glycoprotein (Env) on pseudovirus (HIV-1).
Test [3] has as its target HIV-1 Env of isolate MGRM-D-021 (clade D pseudovirus) (HIV-1).
Test [4] concerns the target HIV-1 Env of isolate 98CN006 (CRF08 BC) (HIV-1 isolate 98CN006).
Test [5] concerns the target HIV-1 Env of pseudovirus MGRM-AE-004 (clade CRF01_AE) (HIV-1).
The target in test [6] is HIV-1 Env of isolate THR0.18 (Acute), clade B, on pseudovirus (HIV-1).
In test [7] the target is HIV-1 envelope glycoprotein (Env) of isolate MGRM-A-010, clade A (HIV-1).
Test [8] concerns the target HIV-1 Env of isolate MGRM-D-022 (clade D pseudovirus) (HIV-1).
Test [9] addresses HIV-1 envelope glycoprotein (Env) of isolate MGRM-A-014, clade A (HIV-1).
In test [10] the target is HIV-1 Env of pseudovirus MGRM-F1-020 (HIV-1).
Test [11] addresses HIV-1 Env of pseudovirus MGRM-AE-002 (clade CRF01_AE) (HIV-1).
Test [12] deals with HIV-1 Env of pseudovirus CMU02 (clade CRF01_AE) (HIV-1).
The target in test [13] is HIV-1 envelope glycoprotein (Env) of isolate 94UG103, clade A (HIV-1).
In test [14] the target is aMLV envelope protein on pseudovirus (negative control).
The target in test [15] is HIV-1 Env of isolate MGRM-D-011 (clade D pseudovirus) (HIV-1).
Test [16] concerns the target HIV-1 Env of isolate MGRM-Chronic-B-002, clade B, on pseudovirus (HIV-1).
In test [17] the target is HIV-1 envelope glycoprotein (Env) of isolate MGRM-A-011, clade A (HIV-1).

Regarding 4E10 (antibody), the IC50 (µg/ml), pseudovirus neutralization in [1] was 5.3 µg/mL; in [3] it was 13.3 µg/mL; in [4] it was 1.91 µg/mL; in test [6], 4.68 µg/mL; in test [7], 14.4 µg/mL; in test [8], 16.9 µg/mL. Further, the IC50 (µg/ml), pseudovirus neutralization in test [9] turned out to be 1.74 µg/mL; in test [10] it was 0.66 µg/mL; in test [13] it was 4.97 µg/mL; in test [15], 0.91 µg/mL; in test [16], 2.19 µg/mL; in test [17], 2.88 µg/mL. In addition, the IC50, pseudovirus neutralization in [2] stood at 0.4 µg/mL. In addition, the values for the IC50 in test [5], in [11] and in [12] were 1.27 µg/mL, 0.55 µg/mL and 0.72 µg/mL, respectively. In test [14], the IC90 (pseudovirus neutralization) was greater than 50 µg/mL.
Take b12 (antibody): the IC50 (µg/ml), pseudovirus neutralization in test [1] is greater than 50 µg/mL; in test [3], 5.23 µg/mL; in [4] it was greater than 50 µg/mL; in test [6], 3.62 µg/mL; in test [7] it was greater than 50 µg/mL; in test [8], 17.6 µg/mL. Also, the IC50 (µg/ml), pseudovirus neutralization is greater than 50 µg/mL in test [9]; greater than 50 µg/mL in [10]; 6.92 µg/mL in test [13]; 7.75 µg/mL in test [15]; 0.86 µg/mL in [16]; 4.01 µg/mL in test [17]. This substance yielded an IC50, pseudovirus neutralization in test [2] greater than 25 µg/mL. Moreover, the IC50 in test [5] is greater than 50 µg/mL; in test [11], 17.1 µg/mL; in test [12] it was 29.3 µg/mL. In test [14], this substance gave an IC90 (pseudovirus neutralization) greater than 50 µg/mL.
Regarding 2F5 (antibody), the IC50 (µg/ml), pseudovirus neutralization in test [1] is greater than 50 µg/mL; in [3], greater than 50 µg/mL; in [4], greater than 50 µg/mL; in test [6] it was greater than 50 µg/mL; in test [7] it was 20.8 µg/mL; in test [8], 8.45 µg/mL. Also, the IC50 (µg/ml), pseudovirus neutralization in [9] was 1.43 µg/mL; in [10], 0.59 µg/mL; in test [13], 1.92 µg/mL; in test [15], greater than 50 µg/mL; in test [16], 1.25 µg/mL; in [17] it was greater than 50 µg/mL. In test [2], this substance had an IC50, pseudovirus neutralization of 0.1 µg/mL. Also, the half-maximal inhibitory concentration (IC50) is 0.98 µg/mL in [5], 0.31 µg/mL in test [11] and 0.6 µg/mL in test [12]. The same substance came in with an IC90 (pseudovirus neutralization) in test [14] greater than 50 µg/mL.
